PMC9969106

Columns and labels:
Conditions in all cases: glycan lost; control: GlyRα1WT
[1] = whole-cell patch-clamp, 100 μM glycine
[2] = whole-cell patch-clamp dose-response, HEK293
[3] = whole-cell patch-clamp, saturating 1 mM glycine
[4] = whole cell fraction western blot, normalized to pan-cadherin

B1: GlyRα1: N38Q (protein)
parent chain: MYSFNTLRLYLWETIVFFSLAASKEAEAARSAPKPMSPSDFLDKLMGRTSGYDARIRPNFKGPPVNVSCNIFINSFGSIAETTMDYRVNIFLRQQWNDPRLAYNEYPDDSLDLDPSMLDSIWKPDLFFANEKGAHFHEITTDNKLLRISRNGNVLYSIRITLTLACPMDLKNFPMDVQTCIMQLESFGYTMNDLIFEWQEQGAVQVADGLTLPQFILKEEKDLRYCTKHYNTGKFTCIEARFHLERQMGYYLIQMYIPSLLIVILSWISFWINMDAAPARVGLGITTVLTMTTQSSGSRASLPKVSYVKAIDIWMAVCLLFVFSALLEYAAVNFVSRQHKELLRFRRKRRHHKSPMLNLFQEDEAGEGRFNFSAYGMGPACLQAKDGISVKGANNSNTTNPPPAPSKSPEEMRKLFIQRAKKIDKISRIGFPMAFLIFNMFYWIIYKIVRREDVHNQ
- other: channel current, other: current amplitude [1]: decreases, 1.0 ± 0.3 vs 3.6 ± 0.5
- other: glycine potency, EC50 [2]: decreases, 206 vs 85
- other: channel current, other: current amplitude [3]: no change, 5.0 ± 0.8 vs 6.0 ± 0.6
- expression_or_secretion, other: relative expression [4]: no change, 0.57 ± 0.13 vs 1.0 ± 0.16, GlyRα1WT 1.0 ± 0.16; GlyRα1N38Q 0.57 ± 0.13; p = 0.1118
